Laboratory results reported in PMC3828642, “1-Aminocyclopropane-1-carboxylic acid oxidase reaction mechanism and putative post-translational activities of the ACCO protein” (AoB Plants, 2013).

Substrate: NC1(C(=O)O)CC1
Assay: purified protein
Details: Fe(II), ascorbate, bicarbonate active-site Fe(II); Arg175, Arg244 and Ser246 affect ACC binding

B1: 1-aminocyclopropane-1-carboxylic acid oxidase (ACCO1) (Malus domestica) (protein)
chain: MATFPVVDLSLVNGEERAATLEKINDACENWGFFELVNHGMSTELLDTVEKMTKDHYKKTMEQRFKEMVAAKGLDDVQSEIHDLDWESTFFLRHLPSSNISEIPDLEEEYRKTMKEFAVELEKLAEKLLDLLCENLGLEKGYLKKVFYGSKGPNFGTKVSNYPPCPKPDLIKGLRAHSDAGGIILLFQDDKVSGLQLLKDGEWVDVPPMHHSIVINLGDQIEVITNGKYKSVMHRVIAQSDGTRMSIASFYNPGNDSFISPAPAVLEKKTEDAPTYPKFVFDDYMKLYSGLKFQAKEPRFEAMKAKESTPVATA
Question: B1 was tested. Which Km did it give?
Answer: Its Km is 51 µM.
